Source: article PMC9482650, “Quantitative fragmentomics allow affinity mapping of interactomes” (Nature Communications, 2022)

Assays:
Experiment in all cases: holdup assay
Parameters in all cases: key: below the threshold = too weak to quantify, mostly under pKd 3.1 to 4
CARD11, Q9BXL7 = molecular target: T1, CARD11, Q9BXL7
T1 sequence (Q9BXL7 662-765, limits assumed, looked up): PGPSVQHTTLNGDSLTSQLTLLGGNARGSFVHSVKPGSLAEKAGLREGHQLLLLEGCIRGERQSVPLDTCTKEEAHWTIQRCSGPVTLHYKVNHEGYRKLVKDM

DFNB31_2, Q9P202 = molecular target: T2, DFNB31_2, Q9P202
T2 sequence (Q9P202 274-371, limits assumed, looked up): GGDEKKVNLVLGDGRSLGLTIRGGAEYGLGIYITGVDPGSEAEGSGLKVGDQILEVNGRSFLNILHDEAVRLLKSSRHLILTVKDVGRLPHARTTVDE

DLG1_1, Q12959 = molecular target: DLG1_1, Q12959
FRMPD1, Q5SYB0 = molecular target: T3, FRMPD1, Q5SYB0
T3 sequence (Q5SYB0 52-145, limits assumed, looked up): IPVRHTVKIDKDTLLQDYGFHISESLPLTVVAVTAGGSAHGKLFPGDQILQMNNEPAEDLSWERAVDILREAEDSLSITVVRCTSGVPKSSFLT

FRMPD2_3, Q68DX3 = molecular target: FRMPD2_3, Q68DX3
GORASP1, Q9BQQ3 = molecular target: GORASP1, Q9BQQ3
GRASP, Q7Z6J2 = molecular target: GRASP, Q7Z6J2
GRIP2_3, Q9C0E4 = molecular target: GRIP2_3, Q9C0E4
IL16_1, Q14005 = molecular target: IL16_1, Q14005
Inadl_2, Q8NI35 = molecular target: Inadl_2, Q8NI35
LAP2, Q96RT1 = molecular target: LAP2, Q96RT1
LIN7A, O14910 = molecular target: T4, LIN7A, O14910
T4 sequence (O14910 103-200, limits assumed, looked up): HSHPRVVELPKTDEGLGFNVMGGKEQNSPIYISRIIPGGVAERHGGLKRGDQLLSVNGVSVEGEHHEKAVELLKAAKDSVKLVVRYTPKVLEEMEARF

LNX1_1, Q8TBB1 = molecular target: LNX1_1, Q8TBB1
MAGI1_2, Q96QZ7 = molecular target: MAGI1_2, Q96QZ7
MAGI2_6, Q86UL8 = molecular target: MAGI2_6, Q86UL8
MAGI3_2, Q5TCQ9 = molecular target: MAGI3_2, Q5TCQ9
MPP2, Q14168 = molecular target: T5, MPP2, Q14168
T5 sequence (Q14168 180-250, limits assumed, looked up): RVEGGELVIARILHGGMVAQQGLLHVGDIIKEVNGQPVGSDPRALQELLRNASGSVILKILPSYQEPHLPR

MPP7, Q5T2T1 = molecular target: T6, MPP7, Q5T2T1
T6 sequence (Q5T2T1 134-230, limits assumed, looked up): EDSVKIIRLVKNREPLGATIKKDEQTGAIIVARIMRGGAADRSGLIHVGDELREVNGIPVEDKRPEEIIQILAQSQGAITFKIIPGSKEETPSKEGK

NHERF4_2, Q86UT5 = molecular target: NHERF4_2, Q86UT5
PCLO, Q9Y6V0 = molecular target: T7, PCLO, Q9Y6V0
T7 sequence (Q9Y6V0 4491-4600, limits assumed, looked up): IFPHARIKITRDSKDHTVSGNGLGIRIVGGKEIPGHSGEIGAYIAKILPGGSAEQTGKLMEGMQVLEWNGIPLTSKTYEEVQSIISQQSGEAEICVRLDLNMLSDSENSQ

PICK1, Q9NRD5 = molecular target: PICK1, Q9NRD5
RADIL, Q96JH8 = molecular target: T8, RADIL, Q96JH8
T8 sequence (Q96JH8 971-1071, limits assumed, looked up): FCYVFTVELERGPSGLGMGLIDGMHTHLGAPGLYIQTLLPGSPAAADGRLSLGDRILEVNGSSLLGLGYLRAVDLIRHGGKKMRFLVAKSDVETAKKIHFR

RAPGEF6, Q8TEU7 = molecular target: T9, RAPGEF6, Q8TEU7
T9 sequence (Q8TEU7 525-625, limits assumed, looked up): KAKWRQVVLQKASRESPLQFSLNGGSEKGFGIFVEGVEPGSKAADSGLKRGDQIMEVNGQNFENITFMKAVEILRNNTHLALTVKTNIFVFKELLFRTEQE

SCRIB_1, Q14160 = molecular target: SCRIB_1, Q14160
SNTG2, Q9NY99 = molecular target: T10, SNTG2, Q9NY99
T10 sequence (Q9NY99 68-166, limits assumed, looked up): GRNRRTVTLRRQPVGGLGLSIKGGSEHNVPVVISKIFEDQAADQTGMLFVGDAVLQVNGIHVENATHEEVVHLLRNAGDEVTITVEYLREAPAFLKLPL

SYNJ2BP, P57105 = molecular target: T11, SYNJ2BP, P57105
T11 sequence (P57105 8-110, limits assumed, looked up): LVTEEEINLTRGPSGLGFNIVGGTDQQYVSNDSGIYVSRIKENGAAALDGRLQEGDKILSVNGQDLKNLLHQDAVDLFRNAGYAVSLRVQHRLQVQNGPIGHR

TJP2_1, Q9UDY2 = molecular target: TJP2_1, Q9UDY2
[1] = plain residues with an end cap or a label only (N-terminal biotin on a linker: ahx)
[2] = plain residues with an end cap or a label only (N-terminal biotin on a linker: ado-ado, ttds)
[3] = plain residues with an end cap or a label only (N-terminal biotin on a linker: ttds)
[4] = plain residues with an end cap or a label only (N-terminal biotin on a linker: ado-ado)

Sequence of NHERF4_2, Q86UT5 (Q86UT5 220-308): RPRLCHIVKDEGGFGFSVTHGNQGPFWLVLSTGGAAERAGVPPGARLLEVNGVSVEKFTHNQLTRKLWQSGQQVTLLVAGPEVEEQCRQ
Sequence of GORASP1, Q9BQQ3 (Q9BQQ3 1-208): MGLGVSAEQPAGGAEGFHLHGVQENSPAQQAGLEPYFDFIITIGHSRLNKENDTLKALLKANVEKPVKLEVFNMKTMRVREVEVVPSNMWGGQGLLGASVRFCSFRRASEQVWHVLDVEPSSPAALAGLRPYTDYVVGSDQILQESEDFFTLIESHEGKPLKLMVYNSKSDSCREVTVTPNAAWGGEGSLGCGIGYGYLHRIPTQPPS
Sequence of PICK1, Q9NRD5 (Q9NRD5 17-115): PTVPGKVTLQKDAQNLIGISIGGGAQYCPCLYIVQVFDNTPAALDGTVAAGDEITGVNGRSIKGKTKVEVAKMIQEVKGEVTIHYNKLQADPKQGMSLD
Sequence of TJP2_1, Q9UDY2 (Q9UDY2 24-128): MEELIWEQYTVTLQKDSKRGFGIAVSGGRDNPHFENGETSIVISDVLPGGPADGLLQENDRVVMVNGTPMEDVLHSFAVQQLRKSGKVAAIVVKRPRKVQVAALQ
Sequence of SCRIB_1, Q14160 (Q14160 718-814): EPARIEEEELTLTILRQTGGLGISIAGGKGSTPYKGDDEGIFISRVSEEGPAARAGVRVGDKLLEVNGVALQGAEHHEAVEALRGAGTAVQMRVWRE
Sequence of IL16_1, Q14005 (Q14005 210-306): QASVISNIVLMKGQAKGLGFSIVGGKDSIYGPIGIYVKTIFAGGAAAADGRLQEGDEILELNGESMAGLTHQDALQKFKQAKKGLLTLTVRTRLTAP
Sequence of MAGI3_2, Q5TCQ9 (Q5TCQ9 398-503): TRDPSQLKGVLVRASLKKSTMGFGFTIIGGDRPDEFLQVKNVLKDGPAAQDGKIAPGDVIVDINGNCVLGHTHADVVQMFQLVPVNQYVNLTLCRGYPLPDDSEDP
Sequence of LAP2, Q96RT1 (Q96RT1 other isoform, or with tags, fused parts or gaps): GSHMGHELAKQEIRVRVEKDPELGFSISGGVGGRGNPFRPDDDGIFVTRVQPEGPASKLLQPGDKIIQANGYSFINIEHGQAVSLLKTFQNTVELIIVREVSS
Sequence of GRIP2_3, Q9C0E4 (Q9C0E4 238-339): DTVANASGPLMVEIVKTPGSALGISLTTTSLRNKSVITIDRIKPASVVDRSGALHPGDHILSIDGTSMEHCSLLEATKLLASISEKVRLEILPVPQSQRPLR
Sequence of GRASP, Q7Z6J2 (Q7Z6J2 96-193): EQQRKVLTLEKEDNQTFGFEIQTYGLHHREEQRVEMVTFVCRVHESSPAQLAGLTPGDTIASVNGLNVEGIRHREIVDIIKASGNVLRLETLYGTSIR
Sequence of FRMPD2_3, Q68DX3 (Q68DX3 1073-1166): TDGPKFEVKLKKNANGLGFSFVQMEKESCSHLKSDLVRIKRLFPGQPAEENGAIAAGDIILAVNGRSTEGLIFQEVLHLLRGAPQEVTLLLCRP
Sequence of LNX1_1, Q8TBB1 (Q8TBB1 261-371): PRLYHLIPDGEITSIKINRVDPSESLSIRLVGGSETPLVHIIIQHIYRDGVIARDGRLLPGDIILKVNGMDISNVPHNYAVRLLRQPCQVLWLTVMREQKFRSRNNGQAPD
Sequence of MAGI1_2, Q96QZ7 (Q96QZ7 456-580): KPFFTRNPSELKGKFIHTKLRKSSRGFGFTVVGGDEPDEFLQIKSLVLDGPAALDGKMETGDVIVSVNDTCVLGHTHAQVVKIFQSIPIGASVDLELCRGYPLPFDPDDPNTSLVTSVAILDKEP
Sequence of MAGI2_6, Q86UL8 (Q86UL8 1141-1229): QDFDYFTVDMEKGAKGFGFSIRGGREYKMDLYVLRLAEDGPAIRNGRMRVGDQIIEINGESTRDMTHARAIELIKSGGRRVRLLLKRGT
Sequence of Inadl_2, Q8NI35 (Q8NI35 238-335): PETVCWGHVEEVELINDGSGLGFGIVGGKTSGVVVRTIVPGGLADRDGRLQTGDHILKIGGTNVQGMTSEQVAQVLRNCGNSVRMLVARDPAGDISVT

SKKNELFSNL [NHERF1, O14745]
pKd (CARD11, Q9BXL7; [1]): below the threshold
pKd (DFNB31_2, Q9P202; [1]): below the threshold
pKd (DLG1_1, Q12959; [1]): below the threshold
pKd (FRMPD1, Q5SYB0; [1]): below the threshold
pKd (FRMPD2_3, Q68DX3; [1]): below the threshold
pKd (GORASP1, Q9BQQ3; [1]): below the threshold
pKd (GRASP, Q7Z6J2; [1]): below the threshold
pKd (GRIP2_3, Q9C0E4; [1]): below the threshold
pKd (IL16_1, Q14005; [1]): below the threshold
pKd (Inadl_2, Q8NI35; [1]): below the threshold
pKd (LAP2, Q96RT1; [1]): below the threshold
pKd (LIN7A, O14910; [1]): below the threshold
pKd (LNX1_1, Q8TBB1; [1]): below the threshold
pKd (MAGI1_2, Q96QZ7; [1]): below the threshold
pKd (MAGI2_6, Q86UL8; [1]): below the threshold
pKd (MAGI3_2, Q5TCQ9; [1]): below the threshold
pKd (MPP2, Q14168; [1]): below the threshold
pKd (MPP7, Q5T2T1; [1]): below the threshold
pKd (NHERF4_2, Q86UT5; [1]): below the threshold
pKd (PCLO, Q9Y6V0; [1]): below the threshold
pKd (PICK1, Q9NRD5; [1]): below the threshold
pKd (RADIL, Q96JH8; [1]): below the threshold
pKd (RAPGEF6, Q8TEU7; [1]): below the threshold
pKd (SCRIB_1, Q14160; [1]): below the threshold
pKd (SNTG2, Q9NY99; [1]): below the threshold
pKd (SYNJ2BP, P57105; [1]): below the threshold
pKd (TJP2_1, Q9UDY2; [1]): below the threshold

SNAKAVETDV [KCNA4, P22459]
pKd (CARD11, Q9BXL7; [2]): 3.55
pKd (DFNB31_2, Q9P202; [2]): below the threshold
pKd (DLG1_1, Q12959; [2]): 4.72
pKd (FRMPD1, Q5SYB0; [2]): below the threshold
pKd (FRMPD2_3, Q68DX3; [2]): below the threshold
pKd (GORASP1, Q9BQQ3; [2]): below the threshold
pKd (GRASP, Q7Z6J2; [2]): below the threshold
pKd (GRIP2_3, Q9C0E4; [2]): below the threshold
pKd (IL16_1, Q14005; [2]): below the threshold
pKd (Inadl_2, Q8NI35; [2]): below the threshold
pKd (LAP2, Q96RT1; [2]): 4.32
pKd (LIN7A, O14910; [2]): below the threshold
pKd (LNX1_1, Q8TBB1; [2]): 3.77
pKd (MAGI1_2, Q96QZ7; [2]): below the threshold
pKd (MAGI2_6, Q86UL8; [2]): 4.35
pKd (MAGI3_2, Q5TCQ9; [2]): 3.9
pKd (MPP2, Q14168; [2]): below the threshold
pKd (MPP7, Q5T2T1; [2]): below the threshold
pKd (NHERF4_2, Q86UT5; [2]): below the threshold
pKd (PCLO, Q9Y6V0; [2]): below the threshold
pKd (PICK1, Q9NRD5; [2]): below the threshold
pKd (RADIL, Q96JH8; [2]): below the threshold
pKd (RAPGEF6, Q8TEU7; [2]): below the threshold
pKd (SCRIB_1, Q14160; [2]): below the threshold
pKd (SNTG2, Q9NY99; [2]): 4.28
pKd (SYNJ2BP, P57105; [2]): 4.37
pKd (TJP2_1, Q9UDY2; [2]): below the threshold

PPRQRSETQV [HPV82-E6, Q9IR59]
pKd (CARD11, Q9BXL7; [3]): below the threshold
pKd (DFNB31_2, Q9P202; [3]): below the threshold
pKd (DLG1_1, Q12959; [3]): 4.75
pKd (FRMPD1, Q5SYB0; [3]): below the threshold
pKd (FRMPD2_3, Q68DX3; [3]): below the threshold
pKd (GORASP1, Q9BQQ3; [3]): below the threshold
pKd (GRASP, Q7Z6J2; [3]): below the threshold
pKd (GRIP2_3, Q9C0E4; [3]): below the threshold
pKd (IL16_1, Q14005; [3]): below the threshold
pKd (Inadl_2, Q8NI35; [3]): below the threshold
pKd (LAP2, Q96RT1; [3]): 3.45
pKd (LIN7A, O14910; [3]): below the threshold
pKd (LNX1_1, Q8TBB1; [3]): below the threshold
pKd (MAGI1_2, Q96QZ7; [3]): 5.54
pKd (MAGI2_6, Q86UL8; [3]): 3.46
pKd (MAGI3_2, Q5TCQ9; [3]): 5.68
pKd (MPP2, Q14168; [3]): below the threshold
pKd (MPP7, Q5T2T1; [3]): below the threshold
pKd (NHERF4_2, Q86UT5; [3]): below the threshold
pKd (PCLO, Q9Y6V0; [3]): below the threshold
pKd (PICK1, Q9NRD5; [3]): below the threshold
pKd (RADIL, Q96JH8; [3]): 3.34
pKd (RAPGEF6, Q8TEU7; [3]): below the threshold
pKd (SCRIB_1, Q14160; [3]): 4.12
pKd (SNTG2, Q9NY99; [3]): 4
pKd (SYNJ2BP, P57105; [3]): 4.86
pKd (TJP2_1, Q9UDY2; [3]): 3.44

SSIDLWETAL [SLC15A5, A6NIM6]
pKd (CARD11, Q9BXL7; [3]): below the threshold
pKd (DFNB31_2, Q9P202; [3]): below the threshold
pKd (DLG1_1, Q12959; [3]): 4.43
pKd (FRMPD1, Q5SYB0; [3]): below the threshold
pKd (FRMPD2_3, Q68DX3; [3]): below the threshold
pKd (GORASP1, Q9BQQ3; [3]): 4.02
pKd (GRASP, Q7Z6J2; [3]): 5.28
pKd (GRIP2_3, Q9C0E4; [3]): below the threshold
pKd (IL16_1, Q14005; [3]): 4.29
pKd (Inadl_2, Q8NI35; [3]): below the threshold
pKd (LAP2, Q96RT1; [3]): 4.9
pKd (LIN7A, O14910; [3]): 4.27
pKd (LNX1_1, Q8TBB1; [3]): 3.97
pKd (MAGI1_2, Q96QZ7; [3]): below the threshold
pKd (MAGI2_6, Q86UL8; [3]): 5.08
pKd (MAGI3_2, Q5TCQ9; [3]): 3.81
pKd (MPP2, Q14168; [3]): below the threshold
pKd (MPP7, Q5T2T1; [3]): 3.81
pKd (NHERF4_2, Q86UT5; [3]): below the threshold
pKd (PCLO, Q9Y6V0; [3]): below the threshold
pKd (PICK1, Q9NRD5; [3]): below the threshold
pKd (RADIL, Q96JH8; [3]): 3.78
pKd (RAPGEF6, Q8TEU7; [3]): below the threshold
pKd (SCRIB_1, Q14160; [3]): 5.76
pKd (SNTG2, Q9NY99; [3]): 5.2
pKd (SYNJ2BP, P57105; [3]): 5.45
pKd (TJP2_1, Q9UDY2; [3]): below the threshold

ELKAEDEVQI [DCHS2, Q6V1P9]
pKd (CARD11, Q9BXL7; [4]): below the threshold
pKd (DFNB31_2, Q9P202; [4]): below the threshold
pKd (DLG1_1, Q12959; [4]): below the threshold
pKd (FRMPD1, Q5SYB0; [4]): below the threshold
pKd (FRMPD2_3, Q68DX3; [4]): below the threshold
pKd (GORASP1, Q9BQQ3; [4]): below the threshold
pKd (GRASP, Q7Z6J2; [4]): below the threshold
pKd (GRIP2_3, Q9C0E4; [4]): below the threshold
pKd (IL16_1, Q14005; [4]): below the threshold
pKd (Inadl_2, Q8NI35; [4]): below the threshold
pKd (LAP2, Q96RT1; [4]): below the threshold
pKd (LIN7A, O14910; [4]): below the threshold
pKd (LNX1_1, Q8TBB1; [4]): below the threshold
pKd (MAGI1_2, Q96QZ7; [4]): below the threshold
pKd (MAGI2_6, Q86UL8; [4]): below the threshold
pKd (MAGI3_2, Q5TCQ9; [4]): below the threshold
pKd (MPP2, Q14168; [4]): below the threshold
pKd (MPP7, Q5T2T1; [4]): 4
pKd (NHERF4_2, Q86UT5; [4]): below the threshold
pKd (PCLO, Q9Y6V0; [4]): below the threshold
pKd (PICK1, Q9NRD5; [4]): 4.13
pKd (RADIL, Q96JH8; [4]): below the threshold
pKd (RAPGEF6, Q8TEU7; [4]): below the threshold
pKd (SCRIB_1, Q14160; [4]): below the threshold
pKd (SNTG2, Q9NY99; [4]): below the threshold
pKd (SYNJ2BP, P57105; [4]): below the threshold
pKd (TJP2_1, Q9UDY2; [4]): below the threshold
